Measured values as given in PMC11814294, “A pathogen effector HaRxL10 hijacks the circadian clock component CHE to perturb both plant development and immunity” (Nature Communications, 2025).

B1: MBP-His-CHE (natural protein)
chain: not shown
notes: Vector pQLink (MBP-His-tag); Printed molecular weight 70.1 kD; source: E. coli BL21 (DE3), purified (amylose resin); not shown: MBP, N-terminal, kept; His, N-terminal, kept
B2: His-CHE (natural protein)
chain: not shown
notes: Vector pET28a (His-tag); source: E. coli BL21 (DE3), purified (Ni-NTA); not shown: His, N-terminal, kept

Assays:
[1] = biological target: T1, GST-His-ZTL (Arabidopsis thaliana, UniProt Q94BT6 1-609, RED-NHS 2nd Generation fluorescent label (in the MST assay only)); assay: pull-down; MBP-His-CHE and GST-His-ZTL in equal amounts (about 5 ug), amylose resin, MBP column buffer (20 mM Tris-HCl pH 7.4, 0.2 M NaCl, 1 mM EDTA), 2-3 h at 4 °C; blots with anti-MBP and anti-GST; conditions: both partners purified
T1 construct: Vector pET-42a (GST-tag); Printed molecular weight 99 kD; Called GST-His-ZTL in the pull-downs and GST-ZTL in the MST assay; also called GST-ZTL; ZEITLUPE; source: E. coli BL21 (DE3), purified (GST-beads); not shown: GST, N-terminal, kept; His, N-terminal, kept
T1 sequence (Q94BT6 whole entry): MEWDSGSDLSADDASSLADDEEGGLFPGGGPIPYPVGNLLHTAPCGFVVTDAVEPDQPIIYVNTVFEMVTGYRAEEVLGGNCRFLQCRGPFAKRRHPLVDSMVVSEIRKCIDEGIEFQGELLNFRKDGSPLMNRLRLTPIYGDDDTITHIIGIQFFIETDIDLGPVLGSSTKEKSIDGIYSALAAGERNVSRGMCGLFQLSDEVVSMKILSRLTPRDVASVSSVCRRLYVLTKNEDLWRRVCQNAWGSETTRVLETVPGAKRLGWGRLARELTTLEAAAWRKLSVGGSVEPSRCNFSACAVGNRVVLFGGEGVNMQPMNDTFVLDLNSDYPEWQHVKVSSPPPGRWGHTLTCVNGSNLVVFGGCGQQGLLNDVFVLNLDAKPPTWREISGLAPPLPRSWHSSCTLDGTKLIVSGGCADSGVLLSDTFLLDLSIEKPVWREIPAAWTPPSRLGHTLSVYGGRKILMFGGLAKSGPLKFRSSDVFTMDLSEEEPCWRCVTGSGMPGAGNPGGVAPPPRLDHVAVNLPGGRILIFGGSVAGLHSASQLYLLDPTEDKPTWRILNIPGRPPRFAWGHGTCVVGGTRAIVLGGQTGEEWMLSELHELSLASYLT

[2] = biological target: T1, GST-His-ZTL; assay: MST; 50 nM RED-NHS-labelled GST-ZTL with serially diluted His-CHE, without or with 5 uM His-HaRxL10; 50 mM Tris-HCl pH 7.4, 150 mM NaCl, 10 mM MgCl2, 0.1% Pluronic F-127, Tween-20; 25 °C; Monolith NT.115; conditions: both partners purified

Binder	binding result [1]	binding result [2]
B1	binds	–
B2	–	binds
